Consider four molecules from US6512097.

Broadly, the Kd is a measure of binding affinity in units of concentration. Read a low Kd as tighter binding. The term koff denotes the rate constant with which the complex falls apart. Low readings indicate slow dissociation, high ones fast dissociation. For orientation: kon means the second-order rate constant of association.

Read-outs that look alike come from different tables or passages of the source.

Test [1] concerns the target T1, c-erbB-2 ECD with a Ser-Gly-His6 C-terminal fusion (UniProt P04626 23-652).
T1 construct: extracellular domain; Expressed from CHO cells, IMAC purified; coupled to a CM5 chip, coated on plates, or biotinylated with NHS-LC-biotin; also called c-erbB-2 extracellular domain; biotinylated c-erbB-2 ECD
The experiment in a line: SPR BIAcore.

The target of test [2] is T1, c-erbB-2 ECD with a Ser-Gly-His6 …. Nature of the test: SPR BIAcore. As to the method: (§1) All assays were performed in triplicate. Briefly, […] of radioiodinated sFv was added to 5×10^6 SK-OV cells in the presence of increasing concentrations of unlabeled sFv from the same preparation. After a 30 minute incubation at 20° C., the samples were washed with PBS at 4° C. and centrifuged at 500 g. The amount of labeled sFv bound to the cells was determined by counting the pellets in a gamma counter and the K_a, and K_d were calculated using the EBDA program (V 2.0, G. A. McPherson, 1983). The K_d of all the other isolated sFv were determined using surface plasmon resonance in a BIAcore (Pharmacia). In a BIAcore flow cell, approximately 1400 resonance units (RU) of c-erbB-2 ECD (25 μg/ml in 10 mM sodium acetate, pH 4.5) was coupled to a CM5 sensor chip (Johnsson et al. (1991), supra). Association and dissociation-rates were measured under continuous flow of […] using a concentration range from 50 to 800 nM. Rate constant $kon$ was determined from a plot of (1(dR/dt))/t vs concentration (Karlsson et al. (1991), supra). Rate constant $Hoff$ was determined from the dissociation part of the sensorgram at the highest concentration of sFv analyzed.
The source holds these as a separate data set. A general note: Surface plasmon resonance follows binding to a sensor surface in real time, without labels.

Test [3] has the same target. The experiment in a line: SPR BIAcore. As to the method: as §1
This is another data set of the same source.

The target is the same in test [4]. Nature of the test: SPR BIAcore, unpurified sFv.
Test [5] shares this target. Nature of the test: SPR BIAcore (Kd ND, expression too low).
For test [6] the target is unchanged. Nature of the test: SPR BIAcore. This is another data set of the same source.
The target is the same in test [7]. Nature of the test: SPR BIAcore. The source holds these as a separate data set.
Test [8] deals with T2, c-erbB-2 expressed on cells (SK-OV-3, SK-BR-3) (UniProt P04626 23-1255, limits assumed).
T2 construct: whole, on cells; also called native c-erbB-2 expressed on cells; c-erbB-2 on SK-OV-3 cells
The experiment in a line: Scatchard on SK-OV-3 cells. The procedure: (§2) All assays were performed in triplicate. […] The amount of labeled sFv bound to the cells was determined by counting the pellets in a gamma counter and the K_a, and K_d were calculated using the EBDA program (V 2.0, G. A. McPherson, 1983).

The target of test [9] is T2, c-erbB-2 expressed on cells (SK-OV-3, …). The experiment in a line: Scatchard on SK-OV-3 cells. The procedure: as §2
This is another data set of the same source.

B1: C6L1 sFv (scFv)
scFv: QVQLLQSGAELKKPGESLKISCKGSGYSFTSYWIAWVRQMPGKGLEYMGLIYPGDSDTKYSPSFQGQVTISVDKSVSTAYLQWSSLKPSDSAVYFCARHDVGYCSSSNCAKWPEYFQHWGQGTLVTVSSGGGGSGGGGSGGGGSQSVLTQPPSVSGAPGQWVTISCSGSSSNIGNNYVSWYQQLPGTAPKLLIYDNNKRPSGVPDRFSGSQSGTSASLAISGLRSEDEADYYCAAWDDSLSGWVFGGGTKLTVLG
notes: Light chain shuffled: C6.5 VH with new VL; also called C6L1 (light chain shuffle)
In the case of B1, in [1], the Kd came out at 2.5 nM and the “fold higher affinity than parental” value came to 6 fold. In addition, in test [2], binding was characterised by a dissociation constant (Kd) of 2.6 nM, the koff came out at 0.002 s⁻¹ and the kon amounted to 780000 M⁻¹ s⁻¹. In [3], this molecule yielded a Kd of 2.6 nM.

B2: C6ML3-A2 (scFv)
scFv: QVQLLQSGAELKKPGESLKISCKGSGYSFTSYWIAWVRQMPGKGLEYMGLIYPGDSDTKYSPSFQGQVTISVDKSVSTAYLQWSSLKPSDSAVYFCARHDVGFCSSSNCAKWPEYFQHWGQGTLVTVSSGGGGSGGGGSGGGGSQSVLTQPPSVSAAPGQKVTISCSGSSSNIGNNYVSWYQQLPGTAPKLLIYGHTNRPAGVPDRFSGSKSGTSASLAISGFRSEDEADYYCASWDYTLSGWVFGGGTKLTVLG
notes: C6ML3-9 sFv, VH CDR3 library A clone; unpurified in the koff screen; also called mutant sFv with the conservative replacement of Y99F
For B2, the “fold lower apparent koff than wt” value in test [4] was found to be 2.5 fold.

B3: C6MH3-D7 (scFv)
scFv: QVQLLQSGAELKKPGESLKISCKGSGYSFTSYWIAWVRQMPGKGLEYMGLIYPGDSDTKYSPSFQGQVTISVDKSVSTAYLQWSSLKPSDSAVYFCARHDVGYCSSSNCAKWPEWQDPWGQGTLVTVSSGGGGSGGGGSGGGGSQSVLTQPPSVSAAPGQKVTISCSGSSSNIGNNYVSWYQQLPGTAPKLLIYGHTNRPAGVPDRFSGSKSGTSASLAISGFRSEDEADYYCASWDYTLSGWVFGGGTKLTVLG
notes: C6ML3-9 sFv, VH CDR3 library D mutant; expression too low for a purified Kd
In test [5], B3 came in with a koff of 0.00031 s⁻¹.

B4: 741F8 sFv (scFv, V domains shown)
VH: EIQLVQSGPELKKPGETVKISCKASGYTFTNYGMNWVKQAPGKGLKWMGWINTNTGEPTYAEEFKGRFAFSLETSASTAYLQINNLKNEDTATYFCGRQFITYGGFANWGQGTLVTVSA
VL: DIVMTQSPKFMSTSVGDRVSISCKASQDVSTAVAWYQQKPGQSPKLLIYWTSTRHTGVPDRFTGSGSGTDYTLTISSVQAEDLALHYCQQHYRVPYTFGGGTKLEIK
As to B4, the Kd in test [6] was 26 nM; in [7] it was 26 nM; in test [8], 54 nM; in test [9], 54 nM. The koff in test [6] and in test [7] was 0.0064 s⁻¹ in each case. Moreover, the kon in test [6] and in [7] was 240000 M⁻¹ s⁻¹ throughout.
